According to patent US6468985B1, “Retinoblastoma protein-interacting zinc finger proteins” (The Burnham Institute, priority 1994, dated 2002):

Columns and labels:
[1] = target: T1, RIZ GTPase domain (GST-G) (Rattus norvegicus, UniProt Q63755); assay: competition of unlabeled nucleotides for GTP binding of RIZ GTPase domain; conditions: 20 mM unlabeled nucleotide, 1 hr before α-32P-GTP
T1 construct: a fragment of RIZ from amino acid position 760-949 (RIZ 760-949), containing the putative GTPase domain; made in house; E. coli XL-1 blue is printed only for pKG7.1S)
T1 sequence (Q63755 760-949): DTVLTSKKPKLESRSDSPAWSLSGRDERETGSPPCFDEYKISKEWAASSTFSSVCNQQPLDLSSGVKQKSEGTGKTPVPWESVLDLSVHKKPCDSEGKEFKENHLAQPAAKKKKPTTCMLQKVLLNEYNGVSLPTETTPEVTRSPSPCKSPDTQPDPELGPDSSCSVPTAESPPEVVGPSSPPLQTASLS
Experimental: The GTPase domain of RIZ, which was defined by sequence homology, was evaluated to determine if it was functionally active. For these studies, a fragment of RIZ from amino acid position 760-949 (RIZ 760-949), containing the putative GTPase domain was expressed as a fusion to GST from the plasmid pKG-G and tested for binding to radiolabeled nucleotides. pKG-G was produced by PCR amplification of the nucleotide sequence encoding RIZ (760-949) using primers 5′-TCTCCACAGC ACAGCCCT-3′ (SEQ ID NO: 15), and 5′-GGATAAGGAG GCTGTCTG-3′ (SEQ ID NO: 16) and PCMVRIZ as template. The fragment was cloned into pBSK+ and then into PGEX-KG, expressed and purified by glutathionine-agarose as described above. GST was also expressed from vector PGEX-KG and purified as described above.
To measure GTP-binding, 0.5 μg of GST-RIZ or control GST proteins were separated by SDS-PAGE and blotted onto nitrocellulose. Proteins were renatured in GTP-binding buffer (50 mM Tris-HCl, pH8, 100 mM KCl, 10% glycerol, 0.1% Triton X-100, and 2 mM […]). The nitrocellulose was incubated for 30 min in GTP-binding buffer and then for 2 hr in GTP-binding buffer containing 1 μM α-^32P-GTP (800 Ci/mmol). The nitrocellulose was washed 5 times in GTP-binding buffer, dried and autoradiographed. In some samples, 20 mM unlabeled nucleotides were incubated with the nitrocellulose for 1 hr prior to the addition of α-^32P-GTP.

[2] = target: T2, Rb from HT1080 cell extract (Homo sapiens, UniProt P06400); assay: GST-RIZ (215-462) glutathione-agarose pull-down of Rb from cell extract, anti-Rb immunoblot; assay type: binding; conditions: cell lysate from 293 stably transfected to express E1A as source
T2 construct: endogenous in cells; host or cells: HT1080 cells (lysate)
T2 sequence (P06400 1-928): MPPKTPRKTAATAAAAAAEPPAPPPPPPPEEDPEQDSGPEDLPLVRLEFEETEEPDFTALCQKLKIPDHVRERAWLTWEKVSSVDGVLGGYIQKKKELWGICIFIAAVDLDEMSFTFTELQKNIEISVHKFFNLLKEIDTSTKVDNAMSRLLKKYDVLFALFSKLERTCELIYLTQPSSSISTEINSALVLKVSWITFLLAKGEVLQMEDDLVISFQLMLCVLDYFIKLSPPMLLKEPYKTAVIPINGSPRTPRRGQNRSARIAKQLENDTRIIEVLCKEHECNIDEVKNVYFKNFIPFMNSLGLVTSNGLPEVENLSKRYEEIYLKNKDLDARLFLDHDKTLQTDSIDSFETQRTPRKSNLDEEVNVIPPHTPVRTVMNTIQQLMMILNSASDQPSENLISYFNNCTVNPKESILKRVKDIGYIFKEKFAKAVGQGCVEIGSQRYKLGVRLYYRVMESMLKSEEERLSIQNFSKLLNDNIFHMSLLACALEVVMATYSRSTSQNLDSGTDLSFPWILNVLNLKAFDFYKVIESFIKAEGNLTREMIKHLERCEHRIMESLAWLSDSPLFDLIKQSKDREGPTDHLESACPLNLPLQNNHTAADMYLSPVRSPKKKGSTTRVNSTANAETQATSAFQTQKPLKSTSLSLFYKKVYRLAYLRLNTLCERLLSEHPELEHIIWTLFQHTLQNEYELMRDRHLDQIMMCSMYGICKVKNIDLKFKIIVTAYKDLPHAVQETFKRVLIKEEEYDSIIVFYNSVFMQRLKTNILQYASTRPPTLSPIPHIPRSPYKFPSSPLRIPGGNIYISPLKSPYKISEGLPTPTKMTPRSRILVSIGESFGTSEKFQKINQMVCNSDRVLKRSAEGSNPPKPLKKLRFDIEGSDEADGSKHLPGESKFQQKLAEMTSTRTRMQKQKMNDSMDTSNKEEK
Experimental: Rat RIZ was tested for binding to Rb in HT1080 cells (ATCC #ICCL 121). The cells were grown in DMEM supplemented with […]. Cells were lysed in ELB buffer (50 mM HEPES, pH 7.5, 250 mM NaCl, 0.1% NP-40) supplemented with 5 mM EDTA, 50 mM NaF, 1 mM Na orthovanadate, 1 mM of DTT, aprotinin, leupeptin, and PMSF. The lysate was cleared of cell debris by centrifugation at 12,000 rpm for 10 min in a microfuge.
Binding between 4 μg GST-RIZ (215-462) and Rb from HT1080 cell extract was evaluated by first mixing the two, then binding GST-RIZ and any associated Rb to glutathione-agarose beads. The beads were washed in binding buffer and the bound complexes were eluted by boiling in SDS buffer and analyzed by immunoblotting with anti-Rb antiserum. Immunoblotting was performed by standard techniques (see, for example, Harlow and Lane, supra, 1988).

[3] = target: T3, wild-type full length Rb (A9), 35S-labeled (UniProt P06400 2-928, limits assumed, 35S label); assay: immunoprecipitation with anti-RIZ antiserum, SDS-PAGE, autoradiography
T3 construct: mature; also called wt-Rb; wild-type Rb
T3 sequence (looked up): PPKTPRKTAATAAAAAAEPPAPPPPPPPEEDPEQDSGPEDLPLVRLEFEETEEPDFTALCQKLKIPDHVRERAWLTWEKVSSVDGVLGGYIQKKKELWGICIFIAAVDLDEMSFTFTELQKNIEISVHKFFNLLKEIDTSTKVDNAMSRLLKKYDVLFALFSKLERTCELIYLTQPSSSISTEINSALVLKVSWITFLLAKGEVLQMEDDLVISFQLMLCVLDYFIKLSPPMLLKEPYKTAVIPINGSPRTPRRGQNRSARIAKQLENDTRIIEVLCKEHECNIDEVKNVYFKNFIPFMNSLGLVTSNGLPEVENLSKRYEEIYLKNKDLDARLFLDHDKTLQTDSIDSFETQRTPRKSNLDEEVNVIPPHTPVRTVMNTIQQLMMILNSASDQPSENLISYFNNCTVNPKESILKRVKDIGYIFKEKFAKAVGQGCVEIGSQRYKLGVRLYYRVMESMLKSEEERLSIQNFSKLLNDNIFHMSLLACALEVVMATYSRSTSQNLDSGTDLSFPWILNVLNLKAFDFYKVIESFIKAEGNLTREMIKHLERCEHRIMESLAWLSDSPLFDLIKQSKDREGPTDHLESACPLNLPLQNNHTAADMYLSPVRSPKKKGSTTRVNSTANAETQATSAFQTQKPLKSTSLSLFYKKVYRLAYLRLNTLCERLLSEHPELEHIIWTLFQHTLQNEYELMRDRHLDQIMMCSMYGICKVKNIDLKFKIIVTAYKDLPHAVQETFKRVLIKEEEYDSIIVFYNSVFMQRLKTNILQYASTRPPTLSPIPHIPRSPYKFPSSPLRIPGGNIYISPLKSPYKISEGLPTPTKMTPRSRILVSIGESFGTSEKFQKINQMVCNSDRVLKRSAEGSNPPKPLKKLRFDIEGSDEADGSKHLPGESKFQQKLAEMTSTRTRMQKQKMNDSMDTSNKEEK

[4] = target: T4, 56 kD fragment of Rb produced by bacterial expression from p56Rb plasmid (UniProt P06400 379-928); assay: peptide competition against labeled RIZ (1-575) for 56 kD Rb
T4 construct: range 379-928; Expressed in E. coli; also called 56 kD Rb
T4 sequence (looked up): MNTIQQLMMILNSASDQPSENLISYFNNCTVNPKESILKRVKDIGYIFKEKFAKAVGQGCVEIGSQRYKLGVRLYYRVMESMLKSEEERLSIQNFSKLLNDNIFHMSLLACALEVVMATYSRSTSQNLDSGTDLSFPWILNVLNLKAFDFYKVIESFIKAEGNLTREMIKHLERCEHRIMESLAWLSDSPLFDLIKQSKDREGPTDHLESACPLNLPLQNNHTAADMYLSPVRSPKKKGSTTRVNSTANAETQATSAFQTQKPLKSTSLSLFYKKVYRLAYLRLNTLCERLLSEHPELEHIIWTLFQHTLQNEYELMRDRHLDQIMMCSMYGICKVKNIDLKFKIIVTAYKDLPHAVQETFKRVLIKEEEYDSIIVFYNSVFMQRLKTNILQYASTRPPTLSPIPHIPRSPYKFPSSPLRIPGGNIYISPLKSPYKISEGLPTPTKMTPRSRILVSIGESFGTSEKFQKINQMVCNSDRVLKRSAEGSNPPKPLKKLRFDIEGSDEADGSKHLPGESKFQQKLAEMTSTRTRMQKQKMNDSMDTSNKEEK

[5] = target: T3, wild-type full length Rb (A9), …; assay: preformed complex tested with anti-ce1
[6] = target: T3, wild-type full length Rb (A9), …; assay: 35S-labeled full-length Rb preincubated with RIZ (215-462), immunoprecipitated with anti-ce1

Nc1ncnc2c1ncn2[C@@H]1O[C@H](COP(=O)(O)OP(=O)(O)OP(=O)(O)O)[C@@H](O)[C@H]1O [ATP]
effect of excess unlabeled nucleotide on binding of RIZ GTPase to radiolabeled GTP [1]: did not effect binding

Nc1ccn([C@@H]2O[C@H](COP(=O)(O)OP(=O)(O)OP(=O)(O)O)[C@@H](O)[C@H]2O)c(=O)n1 [CTP]
effect of excess unlabeled nucleotide on binding of RIZ GTPase to radiolabeled GTP [1]: did not effect binding

Nc1nc2c(ncn2[C@@H]2O[C@H](COP(=O)(O)OP(=O)(O)OP(=O)(O)O)[C@@H](O)[C@H]2O)c(=O)[nH]1 [GTP]
effect of excess unlabeled nucleotide on binding of RIZ GTPase to radiolabeled GTP [1]: inhibited binding

O=c1ccn([C@@H]2O[C@H](COP(=O)(O)OP(=O)(O)OP(=O)(O)O)[C@@H](O)[C@H]2O)c(=O)[nH]1 [UTP]
effect of excess unlabeled nucleotide on binding of RIZ GTPase to radiolabeled GTP [1]: did not effect binding

E1A: adenoviral E1A protein; source was cell lysate from 293 stably transfected to express E1A [reference compound]
inhibition of binding of GST-RIZ (215-462) to hypophosphorylated Rb [2]: inhibited binding

B1: glutathionine S-transferase (GST) fused to a fragment of RIZ from amino acid position 245-573 (other)
chain: CEPQPEVDGKQEVTDCEVNDVEEEELEEEEELEEEEEEELGEDGVEEADMPNESSAKEPEIRCEEKPEDLLEEPQSMSNEAREDSPDVTPPPHTPRAREEANGDVLETFMFPCQHCERKFATKQGLERHMHIHISTINHAFKCKYCGKRFGTQINRRRHERRHETGLKRRPSMTLQSSEDPDDGKGENVTSKDESSPPQLGQDCLILNSEKTSQEVLNSSFVEENGEVKELHPCKYCKKVFGTHTNMRRHQRRVHERHLIPKGVRRKGGLLEEPQPPAEQAPPSQNVYVPSTEPEEEGETDDVYIMDISSNISENLNYYIDGKIQTNSS
notes: Expressed from pKG7.1S in E. coli and purified on glutathione agarose; also called GSTZ13; not shown: glutathione S-transferase from vector pGEX-KG
binding result [3]: binds

B2: RIZ-Pep, 11 amino acid peptide EIRCEEKPEDL representing a portion of the cr2 motif of RIZ (peptide)
peptide: EIRCEEKPEDL
notes: Synthetic peptide; also called cr2 peptide
binding result [4]: binds

B3: 35S labeled fragment of RIZ from amino acid position 1-575 (other)
chain: MHQNTESVAATETLAEVPEHVLRGLPEEVRLFPSAVDKTRIGVWATKPILKGKKFGPFVGDKKKRSQVRNNVYMWEVYYPNLGWMCIDATDPEKGNWLRYVNWACSGEEQNLFPLEINRAIYYKTLKPIAPGEELLVWYNGEDNPEIAAAIEEERASARSKRSSPKSRRGKKKSHENKNKGIRTHPTQLKASELDSTFANMRGSAEGPKEEDERPLASAPEQPAPLPEVGNQDAVPQVAIPLPACEPQPEVDGKQEVTDCEVNDVEEEELEEEEELEEEEEEELGEDGVEEADMPNESSAKEPEIRCEEKPEDLLEEPQSMSNEAREDSPDVTPPPHTPRAREEANGDVLETFMFPCQHCERKFATKQGLERHMHIHISTINHAFKCKYCGKRFGTQINRRRHERRHETGLKRRPSMTLQSSEDPDDGKGENVTSKDESSPPQLGQDCLILNSEKTSQEVLNSSFVEENGEVKELHPCKYCKKVFGTHTNMRRHQRRVHERHLIPKGVRRKGGLLEEPQPPAEQAPPSQNVYVPSTEPEEEGETDDVYIMDISSNISENLNYYIDGKIQTNSSTS
modifications: 35S label
notes: In vitro transcribed/translated from Spe I linearized template
binding result [5]: binds

B4: RIZ (215-462) with the GST portion removed by thrombin cleavage (other)
chain: PLASAPEQPAPLPEVGNQDAVPQVAIPLPACEPQPEVDGKQEVTDCEVNDVEEEELEEEEELEEEEEEELGEDGVEEADMPNESSAKEPEIRCEEKPEDLLEEPQSMSNEAREDSPDVTPPPHTPRAREEANGDVLETFMFPCQHCERKFATKQGLERHMHIHISTINHAFKCKYCGKRFGTQINRRRHERRHETGLKRRPSMTLQSSEDPDDGKGENVTSKDESSPPQLGQDCLILNSEKTSQEVLN
binding result [6]: binds
